Source: the supplement of paper PMC9170038

System: MS2 coat protein
Assay: apparent KD of MS2 coat protein; designed switch direction (-1 OFF switch, 1 ON switch): -1; higher = weaker reporter binding
Summary of the method: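 Each step of the titration lasted 0.8–1.5 h at the lowest concentration and 10–20 min at the highest. The protein, SNAP-549-labelled MS2 coat protein, went from 0.7 or 1.5 nM doubling to 3 µM over RNA switches transcribed on Illumina chips by stalled E. coli RNA polymerase. Normalised cluster fluorescence was curve-fitted, and the per-design median over clusters is given as apparent KD.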

[1] = input ligand: microRNA oligo, concentration not stated
[2] = Eterna round: R95, input ligand: FMN 200 uM
[3] = Eterna round: R95, input ligand: microRNA oligo, concentration not stated
[4] = Eterna round: R95, input ligand: none

| Sequence | apparent KD of MS2 coat protein (input ligand: FMN 200 uM) [nM] | apparent KD of MS2 coat protein (input ligand: none) [nM] | apparent KD of MS2 coat protein [1] [nM] | apparent KD of MS2 coat protein [2] [nM] | apparent KD of MS2 coat protein [3] [nM] | apparent KD of MS2 coat protein [4] [nM] |
| --- | --- | --- | --- | --- | --- | --- |
| UAAUUGUGAGGAUAUUCGUUUAACACGGAGACGUGUUGAACGGAGAAGGCACAUGAGGAUCACCCAUGUUCCUU [Mat - Exclusion 4 - JL Mod - D17] (Eterna round: R97, puzzle: Exclusion 4) | 89.9 | 19.3 |  |  |  |  |
| UUAUUAUAUGUAGGAUAUGCAUAUUAUUAUUAUGCAGAAGGACAUGAGGAUCACCCAUGUAUAUUAUUAUUAUAUGUUAUAUAU [Title] (Eterna round: R96, puzzle: Exclusion NG 1) |  |  | 20.9 |  |  |  |
| AUUAUGUUAGGAUAUGCUUAUGGUGGAUAAUCGGAUAUGAUGCAGAAGGGACAUGAGGAUCACCCAUGUACUGU [EX4 #23] (Eterna round: R97, puzzle: Exclusion 4) | 21.5 | 22.1 |  |  |  |  |
| GAAGAGACAGGAUAUACAUGAGGAUCACCCAUGUGAGUAUGUUAGAGGCGGAGGAGAUGUAGAAGGGUCAAAGA [JR_Exclu3_Sub017] (puzzle: Exclusion 3) |  |  |  | 39.9 | 19.6 | 31.6 |
| UUAUACGGUGAGGAUAUCUUCACUAAAGUGUGAAGAGAAGGCGCUACAUGAGGAUCACCCAUGUCUAUGGGCAG [Ex-6 Malc#17] (puzzle: Exclusion 6) |  |  |  | 118 | 187 | 156 |
| UAUUAGCAAGCAAGAUCCCACAUGAGGAUCACCCAUGUGCUCGUCUUAUAAGGUACUGUGACGAAAGUCACGGUACC [Sensor 3, v1 - 95 v2] (Eterna round: R97, puzzle: Sensor, turn-off variant 1) | 52.5 | 45.4 |  |  |  |  |
| GCACGGAGUGUAGGAUAUUAGUGCGAUUAGCACUGAGAAGGACAUGAGGAUCACCCAUGUUCCUCAUAAAUUAGCCUUCCGUGC [Eli exng1 - 037] (Eterna round: R96, puzzle: Exclusion NG 1) | 27.4 | 27 | 21 |  |  |  |
| GAAAAGGUAGGAUAUACGAAAAAAAAGGGUAGAAAAAAAACACAUGAGGAUCACCCAUGUAGAAGGACCAGAAG [salish99_ex2_r3_038] (puzzle: Exclusion 2) |  |  |  | 72.8 | 27.9 | 17.3 |
| UAUUAAUGCAAGGAUAUGCUAUUAAUUUAUUUUGCAGAAGGUGCAACAUGAGGAUCACCCAUGUUGGAGGGUAU [JR_E6_Sub028] (puzzle: Exclusion 6) |  |  |  |  | 19.3 |  |
| UUGGUUAUCCAUGGAAGUAACAUGAGGAUCACCCAUGUAUGUCUAGUUUUUUGUUCGUCAUAGGCCUUUUGUUUGGA [JR_SV3TOV1_Sub022] (puzzle: Sensor v3, turn-off variant 1) |  |  |  | 26.8 | 27.9 | 30.9 |
| GAACCGCGAGGAUAUACAGUCGAGUCUAUUACGUGUCUCGGACUUGAGGAUCACCCAAGUAGAAGGCGUCUCAG [salish99_ex2_r4_635] (Eterna round: R97, puzzle: Exclusion 2) | 54.5 | 56.2 |  |  |  |  |
| GUCAUCAAACAUGGGAUAAACAUGAGGAUCACCCAUGUUUACAAGUUUUUUGCUCGUCUUAUAAUAAGUUUGAUGAC [Antenna 8 - Jieux - Sensor, turn-off variant 1] (Eterna round: R97, puzzle: Sensor, turn-off variant 1) | 14 | 15 |  |  |  |  |
| UUUAGUUCAGGAUAUGUAGAUAUUAACAUGAGGAUCACCCAUGUAGAUCCUGAAUUGACUACAGAAGGGAGCAUUU [Mod of Brourd 17 - Jieux - Exclusion 5] (Eterna round: R97, puzzle: Exclusion 5) | 44.7 | 17.7 |  |  |  |  |
| CCUCUACAUGAGGAUCACCCAUGUUAGGAUAUGCCGGCCGACCUCGGGUGUGUAAUACGCAGAAGGAACGUUAC [Eternabot (Original) Solution 49] (Eterna round: R97, puzzle: Exclusion 1) | 835 | 2390 |  |  |  |  |
| GCUAAACAAGGAUAUACAUGAGGAUCACCCAUGUAGGCAUAGGGUGAAGCACGCCUAUGUAGAAGGUGUCCGCA [Eternabot (Original) Solution 34] (Eterna round: R97, puzzle: Exclusion 3) | 80.6 | 185 |  |  |  |  |
| UUAGAUUGAGGAUAUUUGGAUCCGUACAUGAGGAUCACCCAUGUGUGUAGCACAUUCAACGGAGAAGGCGGUUUCU [Eternabot (L1) Solution 73] (Eterna round: R97, puzzle: Exclusion 5) | 143 | 256 |  |  |  |  |
| AUAAGUGAUAAGGAUAUCACUAGCCUCGGCUAGUGAGAAGGUAUCACAUGAGGAUCACCCAUGUGUUCCAAUAA [Ex6/7-A2] (Eterna round: R97, puzzle: Exclusion 6) | 1350 | 169 |  |  |  |  |
| ACAAGAGCGGAAGGAUAUUUUACAUGAGGAUCACCCAUGUAAUAAAUGAGGAUCACGGAUGUAGUAAAGAAGGUCCGGAUAAGA [Ostracism 2 - Jieux - Exclusion NG 2] (Eterna round: R96, puzzle: Exclusion NG 2) |  |  | 18.4 |  |  |  |
| UUAAAUCAUGUAGGAUAUGCAUAGCGAAGCUAUGCAGAAGGACAUGAGGAUCACCCAUGUGCUUGCGUCCGCGUACGGAUGCUA [Mat - Exclusion NG 1 - Mod of JL - D67] (Eterna round: R96, puzzle: Exclusion NG 1) | 423 | 123 | 84.4 |  |  |  |
| UCCACAUGAGGAUCACCCAUGUAAGGUGAGUAAAAGAAGAGGCAGGAUAUUGAAGCGACCUCGCCCAAGAAGGGCCUCACCAAA [Eternabot solution 11] (Eterna round: R96, puzzle: Exclusion NG 3) | 72.2 | 60.6 | 44.8 |  |  |  |
| CCAAGCUAAAUCAUUAACAACAUGAGGAUCACCCAUGUGUAAGCAAUUAUGUUUGGGCUCUUUAGUGCUCGUCUUAU [JR_STOV1_Sub043] (Eterna round: R97, puzzle: Sensor, turn-off variant 1) | 15.7 | 16.3 |  |  |  |  |
| ACUUAUAGAGGAUAUACAGAAUAUUACAUGAGGAUCACCCAUGUUCUUCAAUGUAUAUUUGUAGAAGGCUAAGGAA [EX-5 Malc#7] (puzzle: Exclusion 5) |  |  |  | 192 | 45.6 | 40.6 |
| GAGAGAAUCUAGGAUAUAUCAAGAGAAGGAGAGAUAGAAGGAGAGACAUGAGGAUCACCCAUGUCUUCGUGUAG [Default title] (Eterna round: R97, puzzle: Exclusion 6) | 16.6 | 15.8 |  |  |  |  |
| UUUUUAGAUGAAGGAUAUACUUAACAUGAGGAUCACCCAUGUGGUGUUGUGAGUGAGUGAGUUUAGUAGAAGGUCAAUUCUUUU [JMF's solution 87] (Eterna round: R96, puzzle: Exclusion NG 2) | 566 | 346 | 311 |  |  |  |
| CAUGAUUGGCGAGGAUAUUGAUCUAGUUGGCGACGAGAAGGCGCCUGUCACAUGAGGAUCACCCAUGUGAGUCUGGUGGAUGAG [Ex NG1 #87] (Eterna round: R96, puzzle: Exclusion NG 1) | 21.4 | 20.4 | 16.5 |  |  |  |
